Results reported in paper PMC4355161.

Biological target: 30/30 nucleosomes labeled with Cy3 on H4 A15C, P62799
Assay: other fluorescence titration

- fold decrease in affinity against wild type SNF2h: 56 fold
- fold decrease in binding against wild type SNF2h: 22 fold
B1: SNF2h ΔHSS (domain or fragment)
chain: MSSAAEPPPPPPPESAPSKPAASIASGGSNSSNKGGPEGVAAQAVASAASAGPADAEMEEIFDDASPGKQKEIQEPDPTYEEKMQTDRANRFEYLLKQTELFAHFIQPAAQKTPTSPLKMKPGRPRIKKDEKQNLLSVGDYRHRRTEQEEDEELLTESSKATNVCTRFEDSPSYVKWGKLRDYQVRGLNWLISLYENGINGILADEMGLGKTLQTISLLGYMKHYRNIPGPHMVLVPKSTLHNWMSEFKRWVPTLRSVCLIGDKEQRAAFVRDVLLPGEWDVCVTSYEMLIKEKSVFKKFNWRYLVIDEAHRIKNEKSKLSEIVREFKTTNRLLLTGTPLQNNLHELWSLLNFLLPDVFNSADDFDSWFDTNNCLGDQKLVERLHMVLRPFLLRRIKADVEKSLPPKKEVKIYVGLSKMQREWYTRILMKDIDILNSAGKMDKMRLLNILMQLRKCCNHPYLFDGAEPGPPYTTDMHLVTNSGKMVVLDKLLPKLKEQGSRVLIFSQMTRVLDILEDYCMWRNYEYCRLDGQTPHDERQDSINAYNEPNSTKFVFMLSTRAGGLGINLATADVVILYDSDWNPQVDLQAMDRAHRIGQTKTVRVFRFITDNTVEERIVERAEMKLRLDSIVIQQGRLVDQNLNKIGKDEMLQMIRHGATHVFASKESEITDEDIDGILERGAKKTAEMNEKLSKMGESSLRNFTMDTESSVYNFEGEDYREKQKIAFTE
modifications: not checked
